Laboratory results from paper PMC6433694.

Legend:
[1] = Flag IP, anti-ubiquitin blot, MG132-treated Huh7; settings: glycan lost; control: wild-type eIF4E
[2] = western blot of exogenous eIF4E, Huh7; settings: glycan lost; control: wild-type eIF4E
[3] = cycloheximide chase, western blot, Huh7; settings: glycan lost; control: wild-type eIF4E
[4] = western blot of eIF4E, Huh7 and PLC/PRF/5; settings: glycan lost; control: control shRNA

| Substance | other: ubiquitination [1] | expression_or_secretion [2] | degradation_or_half_life [3] | expression_or_secretion [4] |
| --- | --- | --- | --- | --- |
| eukaryotic initiation factor 4E (eIF4E): T177A | increases | decreases | decreases | – |
| eukaryotic initiation factor 4E (eIF4E): OGT shRNA1 / OGT shRNA2 | – | – | – | decreases |
| eukaryotic initiation factor 4E (eIF4E): T168A | increases | decreases | decreases | – |
| eukaryotic initiation factor 4E (eIF4E): T168,177A | increases | decreases | decreases | – |
